According to publication PMC3753650:

Tests used:
[1] = target: T1, RNA polymerase sigma70 holoenzyme, molecular beacon derivative (Ec Esigma70 beacon) (Escherichia coli) (UniProt P0A7Z4+P0A7Z4+P0A8V2+P0A8T7+P0A800+P00579); experiment: RNAP beacon fluorescence; conditions: Equilibrium RNAP molecular beacon fluorescence, 25 C and 1 nM RNAP in competition assays, buffer, salt and pH not in material, Kd error 20% (>0.4 nM), ~50% …
[2] = target: T1, RNA polymerase sigma70 holoenzyme, molecular beacon derivative (Ec Esigma70 beacon) (Escherichia coli); experiment: competition; conditions: Equilibrium RNAP molecular beacon fluorescence; 25 C and 1 nM RNAP in competition assays; buffer, salt and pH not in material; Kd error 20% (>0.4 nM), ~50% …

Sequence: AAAAAAAGAATTTGACATCAGGAAAATTTTTTGGT (double strand) [probe 24]
- Kd [1]: 0.19 nM

Sequence: AAAAAAAGAATTTGACATCAGGAAAATTTTTTGGT / AGCAACCAAAAAATTTTCCTGATGTCAAATTCTTTTTTT [probe 27]
- Kd [1]: < 0.1 nM

Sequence: AAAAAAAGAATTTGACATCAGGAAAATTTTTTGGTTGCT (double strand) [probe 25]
- Kd [1]: 11 nM

Sequence: AAAAAAAGAATTTGACATCAGGAAAATTTTTTGGTTGCT / ACCAAAAAATTTTCCTGATGTCAAATTCTTTTTTT [probe 26]
- Kd [1]: < 0.1 nM

Sequence: GGAAAATTTTTTGGTATAAAAGA / ACCAAAAAATTTTCC [probe 9(-7A)]
- binding signal (fold weaker than probe 9) [1]: 710

Sequence: GGAAAATTTTTTGGTTTAATAGA / ACCAAAAAATTTTCC [probe 9(-11T)]
- binding signal (fold weaker than probe 9) [1]: 300

Sequence: TATAATGGGTTCAT [probe 30]
- Kd [1]: 73 nM

Sequence: TATTTGACATCAGGAAAATTTTTCTGT (double strand) [probe 1]
- Kd [1]: 62 nM

Sequence: TATTTGACATCAGGAAAATTTTTCTGTA / ATTATACAGAAAAATTTTCCTGATGTCAAATA [probe 29]
- binding signal (fold tighter than probe 19) [1]: 13

Sequence: TATTTGACATCAGGAAAATTTTTCTGTA / TTATACAGAAAAATTTTCCTGATGTCAAATA [probe 28]
- binding signal (fold tighter than probe 19) [1]: 5

Sequence: TATTTGACATCAGGAAAATTTTTCTGTAGTTA / ACAGAAAAATTTTCCTGATGTCAAATA [probe 10(-7A)]
- binding signal (fold weaker than probe 10) [1]: 8

Sequence: TATTTGACATCAGGAAAATTTTTCTGTATAA / ACAGAAAAATTTTCCTGATGTCAAATA [probe 5]
- binding signal (fold tighter than probe 2) [2]: 50

Sequence: TATTTGACATCAGGAAAATTTTTCTGTATAA / CAGAAAAATTTTCCTGATGTCAAATA [probe 31]
- binding signal (fold weaker than probe 5) [2]: 10

Sequence: TATTTGACATCAGGAAAATTTTTCTGTT / ACAGAAAAATTTTCCTGATGTCAAATA [probe 2(-11T)]
- binding signal (fold weaker than probe 2) [1]: 5

Sequence: TATTTGACATCAGGAAAATTTTTCTGTTGTTA / ACAGAAAAATTTTCCTGATGTCAAATA [probe 11(-7A)]
- binding signal (fold weaker than probe 11) [1]: 2.4

Sequence: TATTTGACATCAGGAAAATTTTTCTGTTT / ACAGAAAAATTTTCCTGATGTCAAATA [probe 3(-11T)]
- binding signal (fold weaker than probe 3) [1]: 5

Sequence: TATTTGACATCAGGAAAATTTTTCTGTTTAA (double strand) [probe 22(-11T)]
- Kd [1]: 120 nM

Sequence: TATTTGACATCAGGAAAATTTTTCTGTTTAA / ACAGAAAAATTTTCCTGATGTCAAATA [probe 5(-11T)]
- binding signal (fold weaker than probe 5) [1]: 200

Sequence: TATTTGACATCAGGAAAATTTTTCTGTTTAAA / ACAGAAAAATTTTCCTGATGTCAAATA [probe 6(-11T,-7A)]
- binding signal (fold weaker than probe 6(-11T)) [1]: 110

Sequence: TATTTGACATCAGGAAAATTTTTCTGTTTAAT (double strand) [probe 23(-11T)]
- Kd [1]: 16 nM

Sequence: TATTTGACATCAGGAAAATTTTTCTGTTTAAT / ACAGAAAAATTTTCCTGATGTCAAATA [probe 6(-11T)]
- binding signal (fold weaker than probe 6) ([1]; ~120-fold tighter than 5(-11T)): 1000

Sequence: TATTTGACATCAGGAAAATTTTTTGGA (double strand) [probe 15(-12A)]
- binding signal (fold weaker than probe 15) [1]: 4

Sequence: TATTTGACATCAGGAAAATTTTTTGGAATAA / TCCAAAAAATTTTCCTGATGTCAAATA [probe 17(-12A)]
- binding signal (fold tighter than 16(-12A)) ([1]; strongly weaker than probe 17): 6

Sequence: TATTTGACATCAGGAAAATTTTTTGGAATAAT / TCCAAAAAATTTTCCTGATGTCAAATA [probe 18(-12A)]
- binding signal (fold tighter than 17(-12A)) [1]: 300

Sequence: TATTTGCTTTCAGGAAAATTTTTCTGTATAAA / CAGAAAAATTTTCCTGAAAGCAAATA [probe 8(-7A)]
- binding signal (fold weaker than probe 8) [1]: 210

Sequence: TGGTTGACTTTTGCCAGATACTGAGGCTGGC / GCCTCAGTATCTGGCAAAAGTCAACCA [probe 13]
- Kd [1]: 100 nM

Sequence: TGGTTGACTTTTGCCAGATACTGAGGCTGGCA / GCCTCAGTATCTGGCAAAAGTCAACCA [probe 12(-7A)]
- Kd [1]: 100 nM

Sequence: TGGTTGACTTTTGCCAGATACTGAGGCTGGCT / GCCTCAGTATCTGGCAAAAGTCAACCA [probe 12]
- Kd [1]: 11 nM
